Measured values taken from patent US20240228586A1.

Molecular target: IL-12 receptor complex (IL-12Rb1 and IL-12Rb2) on preactivated primary mouse CD8+ T cells (mouse) (UniProt Q60837)
Experiment: cell-based or functional assay

Chain of IL-12 receptor complex (IL-12Rb1 and IL-12Rb2) on preactivated primary mouse CD8+ T cells (mouse) (Q60837 20-738, chain 1 of 2): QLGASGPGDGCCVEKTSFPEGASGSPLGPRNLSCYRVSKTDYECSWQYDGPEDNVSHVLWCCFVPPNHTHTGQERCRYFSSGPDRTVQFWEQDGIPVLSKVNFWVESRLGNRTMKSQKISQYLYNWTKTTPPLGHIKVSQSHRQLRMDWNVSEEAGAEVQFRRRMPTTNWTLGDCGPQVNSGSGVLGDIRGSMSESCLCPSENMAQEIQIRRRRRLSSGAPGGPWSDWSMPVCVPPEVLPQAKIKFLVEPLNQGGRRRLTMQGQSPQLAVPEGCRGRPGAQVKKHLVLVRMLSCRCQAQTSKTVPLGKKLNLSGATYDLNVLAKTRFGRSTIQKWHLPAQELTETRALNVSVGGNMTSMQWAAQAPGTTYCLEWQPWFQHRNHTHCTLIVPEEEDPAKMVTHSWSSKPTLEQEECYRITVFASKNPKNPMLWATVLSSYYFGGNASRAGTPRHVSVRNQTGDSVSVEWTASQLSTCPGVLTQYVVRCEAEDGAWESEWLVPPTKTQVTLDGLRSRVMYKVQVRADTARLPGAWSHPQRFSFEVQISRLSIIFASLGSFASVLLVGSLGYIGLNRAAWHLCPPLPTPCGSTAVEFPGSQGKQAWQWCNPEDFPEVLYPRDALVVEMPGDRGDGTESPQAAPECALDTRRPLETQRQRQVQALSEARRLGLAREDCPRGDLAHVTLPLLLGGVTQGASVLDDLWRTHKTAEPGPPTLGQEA
Chain of IL-12 receptor complex (IL-12Rb1 and IL-12Rb2) on preactivated primary mouse CD8+ T cells (mouse) (chain, as listed by the source, chain 2 of 2): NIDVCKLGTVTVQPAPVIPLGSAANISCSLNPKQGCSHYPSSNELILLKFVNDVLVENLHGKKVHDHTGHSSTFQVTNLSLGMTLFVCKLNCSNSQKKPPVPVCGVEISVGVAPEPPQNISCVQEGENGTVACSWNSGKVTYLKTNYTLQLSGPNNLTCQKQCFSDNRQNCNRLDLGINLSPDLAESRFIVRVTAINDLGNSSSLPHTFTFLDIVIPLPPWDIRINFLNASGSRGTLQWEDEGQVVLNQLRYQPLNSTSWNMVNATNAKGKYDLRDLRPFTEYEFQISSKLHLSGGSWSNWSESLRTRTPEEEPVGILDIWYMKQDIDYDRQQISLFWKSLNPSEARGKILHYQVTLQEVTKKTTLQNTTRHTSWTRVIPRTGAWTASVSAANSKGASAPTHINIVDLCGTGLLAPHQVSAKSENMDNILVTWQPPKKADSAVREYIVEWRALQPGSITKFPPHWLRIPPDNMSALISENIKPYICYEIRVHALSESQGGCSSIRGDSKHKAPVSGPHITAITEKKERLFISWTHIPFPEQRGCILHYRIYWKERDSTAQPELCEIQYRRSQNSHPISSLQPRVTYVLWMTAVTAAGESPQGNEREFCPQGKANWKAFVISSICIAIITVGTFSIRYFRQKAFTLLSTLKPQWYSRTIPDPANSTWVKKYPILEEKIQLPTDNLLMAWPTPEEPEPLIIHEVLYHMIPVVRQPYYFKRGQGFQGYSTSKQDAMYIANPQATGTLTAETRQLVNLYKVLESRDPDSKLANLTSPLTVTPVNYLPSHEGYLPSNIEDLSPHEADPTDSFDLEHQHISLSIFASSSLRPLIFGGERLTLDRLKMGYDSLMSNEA

STAT4 phosphorylation in preactivated primary mouse CD8+ T cells, EC50 compared with unmodified IL-12 (fold decrease), 100:
M-L1-IL12 (mouse IL-12Rb1 mask fused through the (G3S)11 linker to the N-terminus of mouse p35, with mouse p40) (from UniProt P43432 23-335)
M-L1-IL12-CBD (from UniProt P04275 1670-1874)
M-L1-IL12-MSA (from UniProt P43432 23-335)
